According to the supplement of paper PMC10126150:
± gives the standard deviation of the averaged measurements.

System: ATP
Experiment: switch fluorescence ratio, 500 uM ATP over buffer (Cy3 cluster intensity, sum of 5 cycles each) (fold (ratio)); higher = stronger signal-on switching upon ATP binding; sequences stand for … in TCGTCGGCAGCGTCAGATGTGTATAAGAGACAGTTTTTTTTTTTTTTTTTTTTTTTTT…TC
Settings: aptamer strand: ATP DNA aptamer (quencher-CACCTGGGGGAGTATTGCGGAGGAAGG + anchor), 100 nM annealed; ATP concentration: 500 uM
Procedure, shortened: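 Values give the fluorescence ratio for each switch-domain sequence, averaged from per-cluster ratios of summed target-cycle to summed buffer-cycle Cy3 intensity. The Cy3-labelled switching-strand clusters sat on a modified Illumina MiSeq flow-cell, were annealed to 100 nM quencher-labelled ATP aptamer, and were imaged in selection buffer, then after 15 min with 500 uM ATP at 22 °C. Five cycles ran with NaOH stripping and re-annealing between them, and clusters outside 100-1000 RFU were excluded.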
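Also: ATP exposure 15 min at 22 °C before imaging.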

Point of comparison: AGTTTTAACG, switch fluorescence ratio 0.974 ± 0.073. Against it:
- GAATATAGTT — within error, 0.9947 ± 0.0078
- GTTTGGTAGT — within error, 0.979 ± 0.038
- CGAGTCGACG — within error, 0.99 ± 0.07
- GCTACCCACT — higher, 1.46 ± 0.033
- CCTTTGTTGG — within error, 1.01 ± 0.013
- GGGATTGGAT — within error, 0.967 ± 0.037
- CGGGGGAGGG — within error, 1.16 ± 0.45
- AATTTTATCT — within error, 0.99 ± 0.014
- GGGAAGGAGT — within error, 0.992 ± 0.043
- AGTAAGATTG — within error, 0.9889 ± 0.0026
- AGGGTTTGCT — within error, 0.96929 ± 0.00044
- TTTTAATCGT — within error, 0.985 ± 0.063
- CGGAAAAAAT — within error, 1.19 ± 0.19
- TTGGATATTT — within error, 1 ± 0.015
- GAATGGGAGT — within error, 0.9969 ± 0.0051
- GGGGATTGAG — within error, 0.973 ± 0.042
- AATTGAAGGC — within error, 0.972 ± 0.022
- AAGAGGGCAT — within error, 1.01 ± 0.022
- TTGGTAAAAG — within error, 1.02 ± 0.033
- TTTTTCGTAT — within error, 1.04 ± 0.044
- TATGTGATCT — within error, 0.9762 ± 0.0052
- GAAGAGGGGT — within error, 1.01 ± 0.014
- GCTGGAATGG — within error, 1.06 ± 0.015
- GGATCGGGGC — within error, 0.994 ± 0.046
- AAGTTTTTTA — within error, 0.993 ± 0.023
- GCTTCAAGTT — within error, 0.985 ± 0.027
- TTCATTCATT — within error, 0.982 ± 0.015
- GTATGATTCG — within error, 0.9843 ± 0.0051
- GGATGTGAGC — within error, 0.983 ± 0.021
- CGTTCTGGGG — within error, 0.984 ± 0.05
- GGTGGGGGCT — within error, 0.973 ± 0.034
- GCTTGTGAGG — within error, 1.02 ± 0.022
- TGTTAGGGTT — within error, 1.01 ± 0.04
- TCTAGGTAGA — within error, 0.993 ± 0.026
- TTAAAATCAG — within error, 1.01 ± 0.027
- CGGGGTCGGA — within error, 0.999 ± 0.035
- TACTCTTTTC — within error, 1.02 ± 0.034
- TTCCACGACT — within error, 1.02 ± 0.025
- TCAATCGCTT — higher, 1.09 ± 0.026
- TTTATCGTCT — higher, 1.12 ± 0.068
- TAGTTGGAAG — within error, 1.021 ± 0.0048
- GCTTTGAATG — within error, 1.011 ± 0.005
- GCTTTTACGG — higher, 1.07 ± 0.016
- AGGGGTACGC — within error, 0.95 ± 0.091
- ACTCTATAAT — higher, 1.146 ± 0.0092
- GGGGAGGGGC — within error, 1.01 ± 0.065
- GCTAAAGGTA — within error, 0.986 ± 0.011
- ATCCGAGCAT — higher, 4.654 ± 0.039
- GGGGAATGCT — within error, 1.01 ± 0.02
- GTCAGGATTT — within error, 0.9925 ± 0.0087
- ACTAATGTTT — within error, 0.994 ± 0.036
- CAGCCAAAT — within error, 1.043 ± 0.01
- TTTTGAGAAA — within error, 0.99 ± 0.028
- AGGGAAATAA — within error, 0.987 ± 0.026
- TTGGTTGTTT — within error, 1 ± 0.052
- CGGCAAGGCT — higher, 1.22 ± 0.1
- TTGAGAGCGG — within error, 1.01 ± 0.047
- TTGAGGTCGT — within error, 1.023 ± 0.0038
- CGAGAGGAGG — within error, 1.01 ± 0.02
- GGGTTTGAAG — within error, 1 ± 0.025
- AGTGGGGTGG — within error, 0.982 ± 0.043
- GAAAGTGAGA — within error, 1.01 ± 0.056
- TAGAGATGGT — within error, 0.962 ± 0.024
- GGATGCTCGG — within error, 0.966 ± 0.015
- ATTGGGGGCC — within error, 0.967 ± 0.028
- GATCTGGTTT — within error, 0.998 ± 0.056
- TGAAACGGAA — higher, 1.15 ± 0.079
- CAAGTGAGAA — within error, 1.02 ± 0.049
- GCAATTTTGT — within error, 1.03 ± 0.015
- GTAAATTGTG — within error, 1.01 ± 0.047
- GACGGGGGGC — within error, 1.02 ± 0.018
- TTGCCGGCTC — within error, 1.03 ± 0.029
- TTACTTGCAT — higher, 1.065 ± 0.0059
- CATAATTGTA — within error, 0.979 ± 0.019
- ATGAATAGAG — within error, 1.02 ± 0.031
- CGGACGGGGG — within error, 0.999 ± 0.036
- TTTCGGGGAA — within error, 1.06 ± 0.1
- TGGGGGCCCG — within error, 0.995 ± 0.047
- TCAAATCGGT — within error, 1.03 ± 0.042
- TTTCGTATGT — within error, 0.997 ± 0.05
- CTTTCCCCGT — higher, 1.396 ± 0.0017
- CAGAGGATGC — within error, 0.995 ± 0.0041
- AGAGCATAGG — within error, 1.03 ± 0.048
- AGTAAGGGCA — within error, 1.01 ± 0.016
- AGTAGGAGT — within error, 0.998 ± 0.033
- GTTAGAAGGG — within error, 0.978 ± 0.023
- ATTAAATAGA — within error, 1.02 ± 0.014
- GATAAGGGGT — within error, 0.981 ± 0.035
- TGTCTGGGGG — within error, 1.01 ± 0.025
- CGCAGTTTTA — within error, 1.055 ± 0.0065
- AACCTTTTTA — within error, 1.01 ± 0.045
- AGTGGTATGA — within error, 1.01 ± 0.048
- TATCGCCGAA — within error, 0.997 ± 0.037
- AATTTTTTCG — within error, 0.992 ± 0.025
- TTTTGGGTCA — within error, 1.02 ± 0.018
- GGGTAGGAAG — within error, 0.971 ± 0.024
- ATCAAAGGGG — within error, 1 ± 0.0072
- ATGATGATAG — within error, 1.01 ± 0.02
- ATGTTAGCGT — within error, 0.9941 ± 0.0048
- TGGAGGGGGG — within error, 0.997 ± 0.086
- GATTCATCTA — within error, 0.983 ± 0.029
- TGGCATAGTT — within error, 0.995 ± 0.042
- GGGTCAAGTC — within error, 0.968 ± 0.04
- TAATGTGTGG — within error, 0.9885 ± 0.0094
- TTACTAGGCC — within error, 1.01 ± 0.034
- CTGGTGGGTC — within error, 1.01 ± 0.018
- GTGAGGGAGC — within error, 1.12 ± 0.27
- TGTGTTCACA — within error, 0.98 ± 0.0058
- TATTGGGGA — within error, 0.958 ± 0.011
- GGGGATGTAC — within error, 1.07 ± 0.077
- AAGATGGTCA — within error, 0.993 ± 0.036
- TTTTTTATGA — within error, 1.03 ± 0.027
- ATAGTCAAGG — within error, 0.982 ± 0.028
- ATCAATTCGA — within error, 1.021 ± 0.0038
- TTTTTAAGAC — within error, 1.08 ± 0.086
- CAGTGAGATG — within error, 1.03 ± 0.019
- ATTGAAGGAG — within error, 0.994 ± 0.023
- TGCAGGGGGG — within error, 1.02 ± 0.039
- TTGCCTGCGG — within error, 0.999 ± 0.0067
- GATAGCTGGT — within error, 0.981 ± 0.025
- CTCGGCGTCG — within error, 1.03 ± 0.019
- ATGTTACATT — within error, 1.01 ± 0.038
- GATTTTCCGT — within error, 1.009 ± 0.009
- ATGGTGTGGG — within error, 1.03 ± 0.021
- GGAAGGGGTA — within error, 1.01 ± 0.048
- ATGAATTAAA — within error, 0.992 ± 0.018
- GGGGTTAGTC — within error, 1.02 ± 0.0085
- CCCGGGGGGT — within error, 1.56 ± 1
- TAGAGGGGTG — within error, 0.991 ± 0.0026
- TCAGTAACGC — within error, 1.05 ± 0.013
- TGCAGGGCGA — within error, 1.004 ± 0.0097
- GCATTATTTG — within error, 1.05 ± 0.02
- ATGGGGCTTT — within error, 1.01 ± 0.013
- TTATCGAGGG — within error, 0.989 ± 0.03
- AATATGTGTA — within error, 0.987 ± 0.018
- AAGGTCCTCT — within error, 1 ± 0.004
- CGGTGTAGAG — within error, 0.996 ± 0.0093
- GCGTTAGGGT — within error, 0.976 ± 0.027
- CAAGTTGGCT — within error, 0.987 ± 0.039
- GCTACTGTTA — higher, 1.077 ± 0.0025
- TCGGCGTTGG — within error, 1.03 ± 0.026
- TCGGTTGAGG — within error, 0.983 ± 0.025
- GGGGCATGGC — within error, 1.02 ± 0.028
- CGGTGACGTT — within error, 1.01 ± 0.028
- GGGGTATCGC — within error, 1.002 ± 0.0095
- AAACATAGTG — within error, 0.987 ± 0.052
- TGCTATTAGG — within error, 0.979 ± 0.045
- GAAAATAGTG — within error, 1.01 ± 0.029
- TCGTCTTTTG — within error, 0.997 ± 0.015
- TAGTCATGAG — within error, 0.981 ± 0.017
- GGTGTTAGGG — within error, 1.02 ± 0.027
- CAGCGGACCG — within error, 1.02 ± 0.028
- TGGGATATGG — within error, 0.996 ± 0.029
- CAAAGGGAAA — within error, 1.02 ± 0.033
- AAATTCCTAC — within error, 1.01 ± 0.015
- AGGGCAATAT — higher, 3.84 ± 0.48
